From publication PMC9482650, “Quantitative fragmentomics allow affinity mapping of interactomes” (Nature Communications, 2022)

T1: ARHGAP21, Q5T5U3
T1 sequence (Q5T5U3 45-169, limits assumed, looked up): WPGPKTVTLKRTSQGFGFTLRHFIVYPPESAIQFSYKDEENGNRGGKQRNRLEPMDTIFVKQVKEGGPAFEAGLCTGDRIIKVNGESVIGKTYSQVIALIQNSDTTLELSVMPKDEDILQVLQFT

T2: PDZD2_2, O15018
T2 sequence (O15018 329-429, limits assumed, looked up): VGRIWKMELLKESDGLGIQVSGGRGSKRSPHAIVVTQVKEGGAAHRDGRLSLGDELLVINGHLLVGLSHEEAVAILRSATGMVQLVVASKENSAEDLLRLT

T3: TX1BP3, O14907
T3 sequence (O14907 10-122, limits assumed, looked up): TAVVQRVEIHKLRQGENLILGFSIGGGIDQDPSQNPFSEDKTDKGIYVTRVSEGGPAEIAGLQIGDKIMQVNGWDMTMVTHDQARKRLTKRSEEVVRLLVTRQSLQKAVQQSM

T4: DFNB31_2, Q9P202
T4 sequence (Q9P202 274-371, limits assumed, looked up): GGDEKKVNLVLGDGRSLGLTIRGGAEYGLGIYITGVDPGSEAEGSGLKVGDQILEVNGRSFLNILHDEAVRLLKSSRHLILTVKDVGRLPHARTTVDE

T5: GRIP1_7, Q9Y3R0
T5 sequence (Q9Y3R0 999-1096, limits assumed, looked up): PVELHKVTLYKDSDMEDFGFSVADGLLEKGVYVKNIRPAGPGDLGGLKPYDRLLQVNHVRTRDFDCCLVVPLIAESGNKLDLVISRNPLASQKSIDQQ

T6: SYNJ2BP, P57105
T6 sequence (P57105 8-110, limits assumed, looked up): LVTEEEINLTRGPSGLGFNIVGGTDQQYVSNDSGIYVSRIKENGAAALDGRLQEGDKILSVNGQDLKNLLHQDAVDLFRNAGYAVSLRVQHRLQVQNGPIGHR

T7: HTRA3, P83110
T7 sequence (P83110 354-453, limits assumed, looked up): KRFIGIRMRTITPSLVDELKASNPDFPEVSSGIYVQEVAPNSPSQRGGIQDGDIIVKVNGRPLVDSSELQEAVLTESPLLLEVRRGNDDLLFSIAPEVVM

T8: LIN7A, O14910
T8 sequence (O14910 103-200, limits assumed, looked up): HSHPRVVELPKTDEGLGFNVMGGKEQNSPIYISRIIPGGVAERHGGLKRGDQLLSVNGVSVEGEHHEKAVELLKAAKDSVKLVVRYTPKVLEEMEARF


Key:
Assay in all cases: holdup assay
Parameters in all cases: key: below the threshold = too weak to quantify, mostly under pKd 3.1 to 4
Conditions in all cases: plain residues with an end cap or a label only (N-terminal biotin on a linker: ado-ado)
ARHGAP21, Q5T5U3 = target: T1, ARHGAP21, Q5T5U3
GORASP1, Q9BQQ3 = target: GORASP1, Q9BQQ3
Inadl_10, Q8NI35 = target: Inadl_10, Q8NI35
HTRA1, Q92743 = target: HTRA1, Q92743
GRID2IP_2, A4D2P6 = target: GRID2IP_2, A4D2P6
MAGI3_2, Q5TCQ9 = target: MAGI3_2, Q5TCQ9
PDZD2_2, O15018 = target: T2, PDZD2_2, O15018
GRIP2_3, Q9C0E4 = target: GRIP2_3, Q9C0E4
DLG4_3, P78352 = target: DLG4_3, P78352
FRMPD4, Q14CM0 = target: FRMPD4, Q14CM0
MAGI2_3, Q86UL8 = target: MAGI2_3, Q86UL8
Inadl_8, Q8NI35 = target: Inadl_8, Q8NI35
TJP1_2, Q07157 = target: TJP1_2, Q07157
LNX1_2, Q8TBB1 = target: LNX1_2, Q8TBB1
TX1BP3, O14907 = target: T3, TX1BP3, O14907
FRMPD2_1, Q68DX3 = target: FRMPD2_1, Q68DX3
SCRIB_2, Q14160 = target: SCRIB_2, Q14160
DFNB31_2, Q9P202 = target: T4, DFNB31_2, Q9P202
Inadl_2, Q8NI35 = target: Inadl_2, Q8NI35
PICK1, Q9NRD5 = target: PICK1, Q9NRD5
GRIP1_7, Q9Y3R0 = target: T5, GRIP1_7, Q9Y3R0
MAGI2_5, Q86UL8 = target: MAGI2_5, Q86UL8
DLG2_2, Q15700 = target: DLG2_2, Q15700
Inadl_5, Q8NI35 = target: Inadl_5, Q8NI35
SYNJ2BP, P57105 = target: T6, SYNJ2BP, P57105
IL16_3, Q14005 = target: IL16_3, Q14005
DLG5_1, Q8TDM6 = target: DLG5_1, Q8TDM6
HTRA3, P83110 = target: T7, HTRA3, P83110
LIN7A, O14910 = target: T8, LIN7A, O14910

Inadl_2, Q8NI35, sequence (Q8NI35 238-335): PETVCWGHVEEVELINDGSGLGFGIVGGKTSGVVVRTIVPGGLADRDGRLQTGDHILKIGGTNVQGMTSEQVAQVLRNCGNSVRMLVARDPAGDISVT
Inadl_10, Q8NI35, sequence (Q8NI35 1673-1763): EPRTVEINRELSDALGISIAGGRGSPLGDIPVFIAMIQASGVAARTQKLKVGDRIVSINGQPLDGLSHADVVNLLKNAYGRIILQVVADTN
SCRIB_2, Q14160, sequence (Q14160 857-960): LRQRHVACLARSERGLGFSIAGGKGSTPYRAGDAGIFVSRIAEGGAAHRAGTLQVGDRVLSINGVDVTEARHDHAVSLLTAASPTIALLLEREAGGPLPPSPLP
DLG2_2, Q15700, sequence (Q15700 189-283): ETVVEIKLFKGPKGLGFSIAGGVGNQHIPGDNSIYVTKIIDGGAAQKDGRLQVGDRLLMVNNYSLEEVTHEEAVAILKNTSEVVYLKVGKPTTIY
Inadl_5, Q8NI35, sequence (Q8NI35 673-780): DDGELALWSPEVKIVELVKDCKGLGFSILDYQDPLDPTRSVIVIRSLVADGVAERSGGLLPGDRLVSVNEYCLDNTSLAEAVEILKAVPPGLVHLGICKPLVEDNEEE
MAGI2_5, Q86UL8, sequence (Q86UL8 915-1017): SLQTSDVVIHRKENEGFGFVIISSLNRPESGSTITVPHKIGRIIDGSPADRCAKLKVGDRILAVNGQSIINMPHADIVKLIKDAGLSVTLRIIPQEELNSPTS
PICK1, Q9NRD5, sequence (Q9NRD5 17-115): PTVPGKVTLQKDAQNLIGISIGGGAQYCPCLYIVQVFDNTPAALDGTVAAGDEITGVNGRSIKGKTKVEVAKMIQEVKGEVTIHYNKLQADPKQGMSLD
HTRA1, Q92743, sequence (Q92743 360-477): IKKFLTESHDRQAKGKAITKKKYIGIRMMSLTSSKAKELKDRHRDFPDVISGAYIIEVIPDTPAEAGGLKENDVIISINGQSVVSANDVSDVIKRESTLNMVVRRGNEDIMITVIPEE
DLG4_3, P78352, sequence (P78352 306-403): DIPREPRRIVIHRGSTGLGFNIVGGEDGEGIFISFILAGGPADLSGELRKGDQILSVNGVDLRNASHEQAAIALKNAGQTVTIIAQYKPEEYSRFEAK
GORASP1, Q9BQQ3, sequence (Q9BQQ3 1-208): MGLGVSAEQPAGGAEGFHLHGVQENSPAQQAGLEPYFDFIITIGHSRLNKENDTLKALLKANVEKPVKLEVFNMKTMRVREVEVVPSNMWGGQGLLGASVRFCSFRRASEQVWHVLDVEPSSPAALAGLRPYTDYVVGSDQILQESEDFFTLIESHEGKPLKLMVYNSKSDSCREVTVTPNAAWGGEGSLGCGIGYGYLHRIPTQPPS
TJP1_2, Q07157, sequence (Q07157 181-274): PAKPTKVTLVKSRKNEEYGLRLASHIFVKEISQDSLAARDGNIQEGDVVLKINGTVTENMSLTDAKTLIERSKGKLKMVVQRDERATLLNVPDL
FRMPD2_1, Q68DX3, sequence (Q68DX3 770-861): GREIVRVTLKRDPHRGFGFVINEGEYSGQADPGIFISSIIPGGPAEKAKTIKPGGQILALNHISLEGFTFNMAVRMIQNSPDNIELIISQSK
DLG5_1, Q8TDM6, sequence (Q8TDM6 617-713): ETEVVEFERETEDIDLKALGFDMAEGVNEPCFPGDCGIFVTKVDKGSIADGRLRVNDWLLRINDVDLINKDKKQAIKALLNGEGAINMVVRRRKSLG
LNX1_2, Q8TBB1, sequence (Q8TBB1 371-470): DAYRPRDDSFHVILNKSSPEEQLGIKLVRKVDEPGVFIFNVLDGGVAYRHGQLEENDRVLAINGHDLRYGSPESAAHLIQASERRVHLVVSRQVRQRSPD
MAGI2_3, Q86UL8, sequence (Q86UL8 600-682): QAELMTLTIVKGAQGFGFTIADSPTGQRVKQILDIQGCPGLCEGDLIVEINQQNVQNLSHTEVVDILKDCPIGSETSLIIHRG
MAGI3_2, Q5TCQ9, sequence (Q5TCQ9 398-503): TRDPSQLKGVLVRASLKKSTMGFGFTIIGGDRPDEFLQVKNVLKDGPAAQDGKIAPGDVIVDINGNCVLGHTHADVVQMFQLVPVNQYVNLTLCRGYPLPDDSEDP
FRMPD4, Q14CM0, sequence (Q14CM0 67-160): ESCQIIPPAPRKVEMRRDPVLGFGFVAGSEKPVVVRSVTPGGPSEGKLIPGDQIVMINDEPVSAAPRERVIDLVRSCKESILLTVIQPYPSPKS
IL16_3, Q14005, sequence (Q14005 1107-1207): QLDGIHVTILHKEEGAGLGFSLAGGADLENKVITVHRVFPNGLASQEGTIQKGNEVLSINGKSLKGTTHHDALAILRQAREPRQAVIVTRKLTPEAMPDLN
GRIP2_3, Q9C0E4, sequence (Q9C0E4 238-339): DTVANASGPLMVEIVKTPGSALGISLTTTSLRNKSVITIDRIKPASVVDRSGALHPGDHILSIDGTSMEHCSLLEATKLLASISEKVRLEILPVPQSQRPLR
GRID2IP_2, A4D2P6, sequence (A4D2P6 272-370): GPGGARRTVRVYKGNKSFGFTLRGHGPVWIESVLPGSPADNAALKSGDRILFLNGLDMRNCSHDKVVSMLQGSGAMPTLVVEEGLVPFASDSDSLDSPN
Inadl_8, Q8NI35, sequence (Q8NI35 1425-1530): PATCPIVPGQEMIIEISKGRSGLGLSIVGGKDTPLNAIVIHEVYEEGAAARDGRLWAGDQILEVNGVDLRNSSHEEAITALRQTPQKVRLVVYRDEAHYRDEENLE

| Binder | pKd (ARHGAP21, Q5T5U3) | pKd (GORASP1, Q9BQQ3) | pKd (Inadl_10, Q8NI35) | pKd (HTRA1, Q92743) | pKd (GRID2IP_2, A4D2P6) | pKd (MAGI3_2, Q5TCQ9) | pKd (PDZD2_2, O15018) | pKd (GRIP2_3, Q9C0E4) | pKd (DLG4_3, P78352) | pKd (FRMPD4, Q14CM0) | pKd (MAGI2_3, Q86UL8) | pKd (Inadl_8, Q8NI35) | pKd (TJP1_2, Q07157) | pKd (LNX1_2, Q8TBB1) | pKd (TX1BP3, O14907) | pKd (FRMPD2_1, Q68DX3) | pKd (SCRIB_2, Q14160) | pKd (DFNB31_2, Q9P202) | pKd (Inadl_2, Q8NI35) | pKd (PICK1, Q9NRD5) | also measured |
| --- | --- | --- | --- | --- | --- | --- | --- | --- | --- | --- | --- | --- | --- | --- | --- | --- | --- | --- | --- | --- | --- |
| SKSLERATQL [COMMD3, Q9UBI1] | below the threshold | 3.78 | below the threshold | 3.89 | 4.69 | 3.75 | 3.95 | below the threshold | below the threshold | 4.33 | below the threshold | 3.52 | 3.51 | below the threshold | below the threshold | below the threshold | 3.55 | below the threshold | below the threshold | below the threshold | pKd (GRIP1_7, Q9Y3R0): 3.51; pKd (MAGI2_5, Q86UL8): 4.49; pKd (DLG2_2, Q15700): 3.83; pKd (Inadl_5, Q8NI35): below the threshold; pKd (SYNJ2BP, P57105): 3.73; pKd (IL16_3, Q14005): below the threshold; pKd (DLG5_1, Q8TDM6): below the threshold; pKd (HTRA3, P83110): below the threshold; pKd (LIN7A, O14910): below the threshold |
| VISERNSTTV [C3AR1, Q16581] | 3.96 | below the threshold | below the threshold | 4.2 | 3.66 | 4.83 | 4.55 | below the threshold | 3.54 | below the threshold | below the threshold | 3.54 | below the threshold | 3.78 | below the threshold | below the threshold | 3.71 | below the threshold | below the threshold | below the threshold | pKd (GRIP1_7, Q9Y3R0): below the threshold; pKd (MAGI2_5, Q86UL8): 3.73; pKd (DLG2_2, Q15700): 4.49; pKd (Inadl_5, Q8NI35): 3.65; pKd (SYNJ2BP, P57105): 4.68; pKd (IL16_3, Q14005): below the threshold; pKd (DLG5_1, Q8TDM6): below the threshold; pKd (HTRA3, P83110): below the threshold; pKd (LIN7A, O14910): below the threshold |

More lines, main results first:

| pKd (ARHGAP21, Q5T5U3) | pKd (GORASP1, Q9BQQ3) | pKd (Inadl_10, Q8NI35) | pKd (HTRA1, Q92743) | pKd (GRID2IP_2, A4D2P6) | pKd (MAGI3_2, Q5TCQ9) | pKd (PDZD2_2, O15018) | pKd (GRIP2_3, Q9C0E4) | pKd (DLG4_3, P78352) | pKd (FRMPD4, Q14CM0) | pKd (MAGI2_3, Q86UL8) | pKd (Inadl_8, Q8NI35) | pKd (TJP1_2, Q07157) | pKd (LNX1_2, Q8TBB1) | pKd (TX1BP3, O14907) | pKd (FRMPD2_1, Q68DX3) | pKd (SCRIB_2, Q14160) | pKd (DFNB31_2, Q9P202) | pKd (Inadl_2, Q8NI35) | pKd (PICK1, Q9NRD5) | Binder | also measured |
| --- | --- | --- | --- | --- | --- | --- | --- | --- | --- | --- | --- | --- | --- | --- | --- | --- | --- | --- | --- | --- | --- |
| 4.27 | 3.78 | below the threshold | 4.26 | below the threshold | 4.37 | 3.52 | below the threshold | below the threshold | 4.7 | below the threshold | below the threshold | 3.55 | below the threshold | 4.13 | below the threshold | below the threshold | below the threshold | below the threshold | below the threshold | WRSKRTDTLL [RAMP3, O60896] | pKd (GRIP1_7, Q9Y3R0): below the threshold; pKd (MAGI2_5, Q86UL8): below the threshold; pKd (DLG2_2, Q15700): 3.51; pKd (Inadl_5, Q8NI35): below the threshold; pKd (SYNJ2BP, P57105): 3.84; pKd (IL16_3, Q14005): below the threshold; pKd (DLG5_1, Q8TDM6): below the threshold; pKd (HTRA3, P83110): below the threshold; pKd (LIN7A, O14910): below the threshold |
| 4.19 | 4.23 | below the threshold | 4.69 | 3.81 | 4.44 | 5.17 | below the threshold | below the threshold | below the threshold | below the threshold | 3.59 | below the threshold | 3.73 | 3.92 | below the threshold | 4.42 | below the threshold | below the threshold | below the threshold | QELLEYETTV [XKR7, Q5GH72] | pKd (GRIP1_7, Q9Y3R0): below the threshold; pKd (MAGI2_5, Q86UL8): 4.89; pKd (DLG2_2, Q15700): 4.84; pKd (Inadl_5, Q8NI35): 3.55; pKd (SYNJ2BP, P57105): 4.98; pKd (IL16_3, Q14005): below the threshold; pKd (DLG5_1, Q8TDM6): 3.69; pKd (HTRA3, P83110): below the threshold; pKd (LIN7A, O14910): 4.38 |
| below the threshold | 4.31 | 3.6 | 4.83 | 4.13 | 5.16 | 4.37 | below the threshold | 4.81 | below the threshold | 4.6 | 5.46 | below the threshold | 4.56 | 4.61 | below the threshold | 4.15 | 3.6 | below the threshold | below the threshold | REVVMRVTTV [MARCHF9, Q86YJ5] | pKd (GRIP1_7, Q9Y3R0): below the threshold; pKd (MAGI2_5, Q86UL8): 4.12; pKd (DLG2_2, Q15700): 5.2; pKd (Inadl_5, Q8NI35): below the threshold; pKd (SYNJ2BP, P57105): 4.82; pKd (IL16_3, Q14005): below the threshold; pKd (DLG5_1, Q8TDM6): below the threshold; pKd (HTRA3, P83110): 3.64; pKd (LIN7A, O14910): 3.82 |
